Test results: PMC3997432, “A Truncated Form of Rod Photoreceptor PDE6 β-Subunit Causes Autosomal Dominant Congenital Stationary Night Blindness by Interfering with the Inhibitory Activity of the γ-Subunit” (PLoS ONE, 2014)
No end group written: not given here. *: point of attachment. BC = 3-(bromoacetyl)-7-diethyl-aminocoumarin, CCN(CC)c1ccc2cc(C(=O)C*)c(=O)oc2c1

Columns and labels:
[1] = target: trypsin-activated bovine PDE6 (tPDE6), PDE6αβ catalytic subunits lacking the inhibitory Pγ subunits (bovine) (UniProt P11541)
[2] = target: T1, PDE6β1-313 (PDE6-specific N-terminal portion of the human rod cGMP phosphodiesterase type 6 β-subunit … (human, UniProt P35913-1 1-313)); test: other fluorescence titration; CysBC-Pγ24-45 (50 nM) in 1 ml of 100 mM PBS buffer (pH 7.5), increasing concentrations of PDE6β1-313 added; excitation 445 nm, emission 490 nm; fit to a hyperbola; details: both partners purified
T1 construct: rod cGMP phosphodiesterase type 6 β-subunit (PDE6β), human, residues 1-313; contains the GAFa domain and a portion of the GAFb domain; amplified from a human retinal cDNA library; Cloned into pET15b with NdeI/BamHI; no removal of the tag is described; also called His6-tagged PDE6β1-313; truncated PDE6β
T1 sequence (P35913 1-313, stated change not applied): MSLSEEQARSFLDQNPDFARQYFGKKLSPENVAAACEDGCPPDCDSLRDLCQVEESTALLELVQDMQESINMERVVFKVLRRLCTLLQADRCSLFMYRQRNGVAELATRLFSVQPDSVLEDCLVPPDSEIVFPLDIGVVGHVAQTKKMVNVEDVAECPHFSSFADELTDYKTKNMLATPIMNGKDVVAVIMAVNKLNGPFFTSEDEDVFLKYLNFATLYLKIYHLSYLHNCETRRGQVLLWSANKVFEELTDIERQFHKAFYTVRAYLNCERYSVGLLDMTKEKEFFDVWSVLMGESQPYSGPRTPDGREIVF

Chain of trypsin-activated bovine PDE6 (tPDE6), PDE6αβ catalytic subunits lacking the inhibitory Pγ subunits (bovine) (P11541 whole entry, chain 1 of 2): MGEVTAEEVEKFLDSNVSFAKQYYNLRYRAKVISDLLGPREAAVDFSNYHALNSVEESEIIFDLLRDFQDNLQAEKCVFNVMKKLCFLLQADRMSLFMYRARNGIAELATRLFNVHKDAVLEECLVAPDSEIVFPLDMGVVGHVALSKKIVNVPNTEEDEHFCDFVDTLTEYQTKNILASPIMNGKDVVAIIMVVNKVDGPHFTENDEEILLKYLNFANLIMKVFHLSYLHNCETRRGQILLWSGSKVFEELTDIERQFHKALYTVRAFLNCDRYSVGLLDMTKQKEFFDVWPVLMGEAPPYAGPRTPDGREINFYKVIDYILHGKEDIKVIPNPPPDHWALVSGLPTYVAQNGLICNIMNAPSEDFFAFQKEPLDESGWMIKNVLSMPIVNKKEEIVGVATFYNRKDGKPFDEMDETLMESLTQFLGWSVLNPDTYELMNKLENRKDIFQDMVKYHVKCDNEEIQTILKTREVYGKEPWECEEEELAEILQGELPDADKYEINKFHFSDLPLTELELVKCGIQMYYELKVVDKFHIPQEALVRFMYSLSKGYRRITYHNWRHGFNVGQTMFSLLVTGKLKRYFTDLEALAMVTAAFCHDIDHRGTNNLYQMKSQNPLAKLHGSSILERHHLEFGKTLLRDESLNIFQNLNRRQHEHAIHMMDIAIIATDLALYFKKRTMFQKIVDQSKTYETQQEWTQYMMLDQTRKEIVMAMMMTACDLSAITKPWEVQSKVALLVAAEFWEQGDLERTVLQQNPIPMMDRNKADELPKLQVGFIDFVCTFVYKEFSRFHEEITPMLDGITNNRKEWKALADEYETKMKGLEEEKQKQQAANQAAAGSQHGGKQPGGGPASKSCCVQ
Chain of trypsin-activated bovine PDE6 (tPDE6), PDE6αβ catalytic subunits lacking the inhibitory Pγ subunits (bovine) (P23439 whole entry, chain 2 of 2, further chain): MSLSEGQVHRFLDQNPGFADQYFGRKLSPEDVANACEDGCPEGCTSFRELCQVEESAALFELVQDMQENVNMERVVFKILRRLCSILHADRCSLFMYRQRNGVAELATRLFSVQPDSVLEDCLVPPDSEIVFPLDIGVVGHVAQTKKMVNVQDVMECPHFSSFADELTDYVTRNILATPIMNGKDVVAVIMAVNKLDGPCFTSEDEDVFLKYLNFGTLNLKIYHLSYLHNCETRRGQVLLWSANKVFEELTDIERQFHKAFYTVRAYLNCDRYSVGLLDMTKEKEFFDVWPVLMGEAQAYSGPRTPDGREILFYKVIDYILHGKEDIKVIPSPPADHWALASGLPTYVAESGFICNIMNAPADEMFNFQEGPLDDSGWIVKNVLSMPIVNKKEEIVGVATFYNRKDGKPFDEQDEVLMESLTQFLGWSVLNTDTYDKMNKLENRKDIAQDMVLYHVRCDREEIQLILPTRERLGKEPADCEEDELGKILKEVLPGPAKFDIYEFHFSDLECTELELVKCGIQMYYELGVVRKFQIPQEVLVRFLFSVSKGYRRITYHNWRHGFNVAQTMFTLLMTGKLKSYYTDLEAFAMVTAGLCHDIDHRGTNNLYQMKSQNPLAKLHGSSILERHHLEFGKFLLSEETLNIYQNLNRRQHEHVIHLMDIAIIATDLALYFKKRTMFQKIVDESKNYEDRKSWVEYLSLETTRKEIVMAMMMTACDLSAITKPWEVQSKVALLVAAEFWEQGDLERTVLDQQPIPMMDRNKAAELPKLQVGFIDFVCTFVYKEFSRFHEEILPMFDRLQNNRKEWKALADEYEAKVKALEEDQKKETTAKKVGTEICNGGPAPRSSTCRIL

Row | Binder | IC50 of the inhibition of tPDE6 (50 pM) activity ([3H]cGMP hydrolysis) by increasing concentrations of Pγ, in the absence of PDE6β1-313 [1] | IC50 of the inhibition of tPDE6 (50 pM) activity ([3H]cGMP hydrolysis) by increasing concentrations of Pγ, in the presence of 2 µM PDE6β1-313 [1] | Kd [2]
1 | Recombinant bovine rod Pγ-subunit (PDE6 inhibitory γ-subunit) (natural protein) MNLEPPKAEIRSATRVMGGPVTPRKGPPKFKQRQTRQFKSKPPKKGVQGFGDDIPGMEGLGTDITVICPWEAFNHLELHELAQYGII | 0.53 nM | 1.6 nM | –
2 | C(BC)RKGPPKFKQRQTRQFKSKPPKK (Cys added at the N-terminus of the peptide to carry the probe (Cys-Pγ24-45); also called fluorescently labeled Pγ24-45; polycationic region of Pγ; source: synthetic peptide) | – | – | 320 nM
